Read-outs that look alike come from different tables or passages of the source.
Key:
[1] = molecular target: HLA-A*1101 (human); test: competition with 125I-labeled standard peptide for purified HLA, gel filtration
[2] = molecular target: HLA-A*0301 (human); test: as above
[3] = molecular target: HLA-A*1101 (human)
[4] = molecular target: HLA-A*1101 (human); remark: listed apart in the source
[5] = molecular target: HLA-A*0301 (human)
[6] = molecular target: HLA-A*0201 (human); test: competition with 125I-labelled standard peptide for purified HLA-A*0201, gel filtration
[7] = molecular target: HLA-A*0301 (human); remark: listed apart in the source

With ALLRYKCGK (modifications not checked) [HPV18 E1 position 284 peptide …] as the binder, how does the binding affinity ratio (IC50 of standard peptide / IC50 of test peptide) [1] read?
The binding affinity ratio (IC50 of standard peptide / IC50 of test peptide) was 0.14.

And the binding affinity ratio (IC50 of standard peptide / IC50 of test peptide) [2]?
The binding affinity ratio (IC50 of standard peptide / IC50 of test peptide) was 0.09.

With CATMCKHYR (modifications not checked) [HPV18 E1 position 412 peptide …] as the binder, how does the binding affinity ratio (IC50 of standard peptide / IC50 of test peptide) [1] read?
The binding affinity ratio (IC50 of standard peptide / IC50 of test peptide) was 0.011.

What about the binding affinity ratio (IC50 of standard peptide / IC50 of test peptide) [2] of the same binder?
Its binding affinity ratio (IC50 of standard peptide / IC50 of test peptide) is 0.0012.

Which binding affinity ratio (IC50 of standard peptide / IC50 of test peptide) [3] does the source give for GLSFTDLVR (modifications not checked) [HPV18 E1 position 223 peptide …] here?
Its binding affinity ratio (IC50 of standard peptide / IC50 of test peptide) is 0.0025.

And the binding affinity ratio (IC50 of standard peptide / IC50 of test peptide) [1]?
The binding affinity ratio (IC50 of standard peptide / IC50 of test peptide) was 0.0025.

And the binding affinity ratio (IC50 of standard peptide / IC50 of test peptide) [2]?
The binding affinity ratio (IC50 of standard peptide / IC50 of test peptide) was 0.0009.

Which results are given for GVSFSELVR (modifications not checked) [HPV16 E1 peptide … (position 216, 9 amino acids)]?
binding affinity ratio (IC50 of standard peptide / IC50 of test peptide) [4]: 0.018; binding affinity ratio (IC50 of standard peptide / IC50 of test peptide) [5]: 0.0011

How did the relative binding ratio (IC50 of standard peptide / IC50 of test peptide) [6] turn out when CTFELSQMV (modifications not checked) [HPV16 E1 … (position 353)] was run?
The relative binding ratio (IC50 of standard peptide / IC50 of test peptide) was 0.0029.

For GLTPSIADSI (modifications not checked) [HPV16 E1 242 peptide …], which relative binding ratio (IC50 of standard peptide / IC50 of test peptide) [6] is on record?
The relative binding ratio (IC50 of standard peptide / IC50 of test peptide) was 0.0002.

With FLKSNSQAK (modifications not checked) [HPV31 E1 peptide … (position 372, 9 amino acids)] as the binder, how does the relative binding ratio (IC50 of standard peptide / IC50 of test peptide) (ratio to standard peptide) [5] read?
The relative binding ratio (IC50 of standard peptide / IC50 of test peptide) (ratio to standard peptide) was 0.0013.

Which relative binding ratio (IC50 of standard peptide / IC50 of test peptide) [1] does the source give for LVSMDVKHR (modifications not checked) [HPV16 E1 peptide … (position 544, 9 amino acids)] here?
Its relative binding ratio (IC50 of standard peptide / IC50 of test peptide) is 0.0089.

What about the relative binding ratio (IC50 of standard peptide / IC50 of test peptide) [2] of the same binder?
The relative binding ratio (IC50 of standard peptide / IC50 of test peptide) was 0.0005.

With NSNASAFLK (modifications not checked) [HPV16 E1 peptide … (position 386, 9 amino acids)] as the binder, how does the binding affinity ratio (IC50 of the standard peptide / IC50 of the test peptide) [7] read?
The binding affinity ratio (IC50 of the standard peptide / IC50 of the test peptide) was 0.0005.

And the relative binding ratio (IC50 of standard peptide / IC50 of test peptide) [1]?
Its relative binding ratio (IC50 of standard peptide / IC50 of test peptide) is 0.011.

What about the relative binding ratio (IC50 of standard peptide / IC50 of test peptide) [2] of the same binder?
Its relative binding ratio (IC50 of standard peptide / IC50 of test peptide) is 0.0005.

Which binding affinity ratio (IC50 of standard peptide / IC50 of test peptide) [3] does the source give for IAQLKDLLK (modifications not checked) [HPV18 E1 position 198 peptide …] here?
Its binding affinity ratio (IC50 of standard peptide / IC50 of test peptide) is 0.0027.

And the binding affinity ratio (IC50 of standard peptide / IC50 of test peptide) [1]?
Its binding affinity ratio (IC50 of standard peptide / IC50 of test peptide) is 0.0027.

What about the binding affinity ratio (IC50 of standard peptide / IC50 of test peptide) [2] of the same binder?
The binding affinity ratio (IC50 of standard peptide / IC50 of test peptide) was 0.0003.

For SLQDIEITCV (modifications not checked) [HPV18 E6 peptide … (position 24)], which relative binding ratio (IC50 of standard peptide / IC50 of test peptide) [6] is on record?
The relative binding ratio (IC50 of standard peptide / IC50 of test peptide) was 0.025.

For SVAALYWYR (modifications not checked) [HPV18 E1 position 322 peptide …], which binding affinity ratio (IC50 of standard peptide / IC50 of test peptide) [4] is on record?
Its binding affinity ratio (IC50 of standard peptide / IC50 of test peptide) is 8.8.

What about the binding affinity ratio (IC50 of standard peptide / IC50 of test peptide) [5] of the same binder?
The binding affinity ratio (IC50 of standard peptide / IC50 of test peptide) was 2.9.

Which results are given for NMSQWIRFR (modifications not checked) [HPV18 E1 position 428 peptide …]?
binding affinity ratio (IC50 of standard peptide / IC50 of test peptide) [4]: 0.0012; binding affinity ratio (IC50 of standard peptide / IC50 of test peptide) [5]: 0.054

For TAQEAKQHR (modifications not checked) [HPV16 E1 peptide … (position 72, 9 amino acids)], which relative binding ratio (IC50 of standard peptide / IC50 of test peptide) [1] is on record?
Its relative binding ratio (IC50 of standard peptide / IC50 of test peptide) is 0.0025.

What about the relative binding ratio (IC50 of standard peptide / IC50 of test peptide) [2] of the same binder?
The relative binding ratio (IC50 of standard peptide / IC50 of test peptide) was 0.0005.

Which relative binding ratio (IC50 of standard peptide / IC50 of test peptide) [6] does the source give for CMCCKCEARI (modifications not checked) [HPV18 E7 peptide … (position 63)] here?
The relative binding ratio (IC50 of standard peptide / IC50 of test peptide) was 0.002.

With EIDGVNHQHL (modifications not checked) [HPV18 E7 peptide … (position 40)] as the binder, how does the relative binding ratio (IC50 of standard peptide / IC50 of test peptide) [6] read?
The relative binding ratio (IC50 of standard peptide / IC50 of test peptide) was 0.0001.

Which relative binding ratio (IC50 of standard peptide / IC50 of test peptide) [6] does the source give for SVYGDTLEKL (modifications not checked) [HPV18 E6 peptide … (position 84)] here?
The relative binding ratio (IC50 of standard peptide / IC50 of test peptide) was 0.0028.

LLVRYKCGK (modifications not checked) [HPV16 E1 peptide … (position 277, 9 amino acids)] was tested. Which binding affinity ratio (IC50 of standard peptide / IC50 of test peptide) [4] did it give?
The binding affinity ratio (IC50 of standard peptide / IC50 of test peptide) was 0.0033.

What about the binding affinity ratio (IC50 of standard peptide / IC50 of test peptide) [5] of the same binder?
Its binding affinity ratio (IC50 of standard peptide / IC50 of test peptide) is 0.0043.

What does the source list for LVRPFKSNK (modifications not checked) [HPV16 E1 peptide … (position 222, 9 amino acids)]?
relative binding ratio (IC50 of standard peptide / IC50 of test peptide) [1]: 1.8; relative binding ratio (IC50 of standard peptide / IC50 of test peptide) [2]: 0.07

For IAAFGLTPSI (modifications not checked) [HPV16 E1 238 peptide …], which relative binding ratio (IC50 of standard peptide / IC50 of test peptide) [6] is on record?
The relative binding ratio (IC50 of standard peptide / IC50 of test peptide) was 0.0002.

GAANTGKSL (modifications not checked) [HPV16 E1 477 peptide …] was tested. Which relative binding ratio (IC50 of standard peptide / IC50 of test peptide) [6] did it give?
Its relative binding ratio (IC50 of standard peptide / IC50 of test peptide) is 0.0003.

NTSLQDIEIT (modifications not checked) [HPV18 E6 peptide … (position 22)] was tested. Which relative binding ratio (IC50 of standard peptide / IC50 of test peptide) [6] did it give?
The relative binding ratio (IC50 of standard peptide / IC50 of test peptide) was 0.0001.

For SLFGMSLMK (modifications not checked) [HPV16 E1 peptide … (position 484, 9 amino acids)], which relative binding ratio (IC50 of standard peptide / IC50 of test peptide) [1] is on record?
The relative binding ratio (IC50 of standard peptide / IC50 of test peptide) was 7.1.

And the relative binding ratio (IC50 of standard peptide / IC50 of test peptide) [2]?
Its relative binding ratio (IC50 of standard peptide / IC50 of test peptide) is 0.72.

MMIEPPKLR (modifications not checked) [HPV16 E1 peptide … (position 305, 9 amino acids)] was tested. Which relative binding ratio (IC50 of standard peptide / IC50 of test peptide) [1] did it give?
The relative binding ratio (IC50 of standard peptide / IC50 of test peptide) was 0.0086.

What about the relative binding ratio (IC50 of standard peptide / IC50 of test peptide) [2] of the same binder?
Its relative binding ratio (IC50 of standard peptide / IC50 of test peptide) is 0.001.

Which relative binding ratio (IC50 of standard peptide / IC50 of test peptide) [6] does the source give for DLRAFQQL (modifications not checked) [HPV18 E7 peptide DLRAFQQL (position 82)] here?
The relative binding ratio (IC50 of standard peptide / IC50 of test peptide) was 0.0001.
